{"source": "the DeepSol protein solubility set", "data": [{"assay": "soluble on expression in E. coli; label from the status in PepcDB or PDB records", "values": [{"sequence": "MGSDKIHHHHHHMDNLIIKPGYVTQFQCVGPECEDSCCYDWRISFDKKSYKNTIKHPLLATTAKSAFIETKKSTSDWADIRLNEQGACPFVNEHKLCDIHAKAGEQALSHTCKTYPRIHKVIGGNKYESLYLSCPEVTRLVLFNPNAFQFDSNISGIKQPSTPSPIWLEKTHEYSLDLLVNLGLDWEQVLLAIGLLIKVSDQVRQNILPIEELDKRLQQLKLYAQSGALAEQYKNLPYSPLPQMHAFIAVHNELCKTHSRGVRERFTSLNQAVAALCNEENNYQIDALNQAWAEHAVPALISHTDLFERYILYSIYHHHFPLIDSQQLSWEAFRLLVLDCFMIRSYLSAIAFKNKGLSESDIVMCFQLYQVVRQHKIEFTQSMSKTLEECGIDSVPAAICLLKTNI", "soluble on expression in E. coli": "not soluble"}, {"sequence": "MGSDKIHHHHHHVAKQKFKITNWPTYNKALINRGSITFWLDDEAIQAWYESATPSSRGRPQRYSDLAITTVLVIKRVFRLTLRAAQGFIDSIFTLMNVPLRCPDYTSVSRRAKSVNVSFKTFTRGEIAHLVIDSTGLKVFGEGEWKVKKHGQERRRIWRKLHLAVDSNTHEIICADLSLNNVTDSEAFPGLIRQTHRKIRAAAADGAYDTRLCHDELRRKKISALIPPRKGAGYWPGEYADRNRAVANQRMTGSNARWKWTTDYNRRSIAETAMYRVKQLFGGSLTLRDYDGQVAEAMALVRALNKMTKAGMPESVRIA", "soluble on expression in E. coli": "not soluble"}, {"sequence": "MKEKISEKEYKALIRKTGKEHFDGEKEEYGDGTVGVWTYELRKYKLKPPVKVKYVTQEQFQEYKDSNNQRLIKIENKVDKLVEIVQIHGEQIKAQGETLQLILQTLQKMSDRLDKMEKRIDKLESK", "soluble on expression in E. coli": "soluble"}, {"sequence": "MVRQPAVAGQFYTDDPRRLREELGHLIRPVPAPRRVTGVIAPHAGYMYSGAIAGAVYGSIVIPRTVVILGPNHHGLGAAASLYPDGTWLSPLGEVPIEQRLSSLVLEHVPQAEPDVIAHRFEHSLEVQVPFLRYLNSDVAIVPMCLGGGGYGWCRQVGEGLARAIAAYGEEVLIVASSDMTHYESAESARLKDEAALSCVLALDAEGLLKVCRQRGITMCGVIPSTVMLVAARELGASRAELIRYGTSGDVTGDNRQVVAYAAVAVYLEHHHHHH", "soluble on expression in E. coli": "not soluble"}, {"sequence": "MAISKLFFAYFHKNEKPFKMLCLPLLPLKNVINQMSFESVWRLSKTSRKMYEKIKNVKKSIYKIVIDNRFEYNIIYPRFKTRILRFEKKSDFVSVYNEMGTNKEITASVYLKFSVDFWIELFYKLDKRGPGKLRSSVYKLNHLKKRLKYLNRFDELFSIKHVDLVIDKYKLFGDSISHPLFQKCDYMEIVGNTSYISNNEMNFVLNNFKLKNGLLTNCLIAEDFDVTAMQQIPRLVIFNAQHITVEDLIKMDCETIKLCYHQFKPRHINQLLHHWLSGEMPKLRRFRLNFYCDTTWIGVVLSGIEHSKWDGQRRAKFFRDGIESIDCGNGFDIERNDGLLATFSSLEDSIDFVVWGNISAL", "soluble on expression in E. coli": "not soluble"}, {"sequence": "MGSDKIHHHHHHMSEMMIVAVTGGKGGTGKSTLSANLFFYFIENYKTALIDCDVETPNLPYLTGCEDLFLAREVFIEVPNIEEGKTYNYNNVCKEGALLKVGDKLIFIEDLCSGCKACGINSNITFKKKSIGKIYEKKFDNGYLIVGKSNLGERKTAKIVTETKKYGLSKNCEINIVDTAAGTHCNVVRALINADKVLIVTEPTPFGVSDAKRIIKVVEKLNIPYKIVLNRYGISDLKIGYNFKIPYDKRIVECYCKGESFLKYNDLRNYIEEIANWIIWG", "soluble on expression in E. coli": "not soluble"}, {"sequence": "MSLNRFTKTSQGRSWNTGNGSPDAICFAVDKPGIVVVGFAVYGGGGIHEYELEVLVDDSEHAGDSTHSHRWTSLELVKGTYTTDDSPSDIAEIRLDKVVPLKENVKYAVRLRNYGSRTANGDGGMTTVQCPDGVTFTFSTCSLSSNGTNQTRGQIPQILYYRSEFDGDLQSQLLSKANEEDKNCSRALSVVSTVVRAAKDLLHRALAVDADEGHHHHHH", "soluble on expression in E. coli": "not soluble"}, {"sequence": "MAHHHHHHVDDDDKPGPALYEENALKGKIDDPNSYVPDAVQEAYKNLDSTSTLTEENFGKPYISAKDLKEIMYDHLPGFGTAFHQLVQVICKIGKDNNLLDTIHAEFQASLADGDSPQCALIQITKRVPIFQDVPPPIIHIRSRGDIPRACQKSLRPAPPSPKIDRGWVCLFKMQDGKTLGLKI", "soluble on expression in E. coli": "soluble"}, {"sequence": "GSHMSAMAESKVLVKGTPFNKPVIKGKLENNYDMSQDEVSLLLFLKTHGGKIPLYRIKNETGLKDPESVLKNLMDYGFALEDKERLGEKIVLTSEGEFVAQAIRVRDEELRLKEMKQKKNVNRSSAPPQ", "soluble on expression in E. coli": "soluble"}, {"sequence": "MGSDKIHHHHHHMKKILFLFLAACFFFSCEKETIVIPQQHAGRTVLAFFWADNSLNSSLRDNIQTMMQGLQAMKDSAALLVYWDGEASDISWPEPCIVEYVTNGQGGINSLSKGTIDAMMADKNTSIYDLIGIGNIRKKYPPQTSTEKTVMQTVIGDMMSAYPSESYGIIFGSHGSGWLPTITGTRSIGQDGGRYSSDTALIPELAEVLRTVNPQKFDFVLFDACMMGCAEVYYELKDAARYCIASVLDIPAAGFPYASVMPYLYENAIKDYLEPICKDYIDYYNYIGWGTISAVDCNQMEGLAEAVRSVILSNQDSLKNVDTADLQQYGKGSSSFKGYAYDMLQFIGKLCGGMAPDDFTQQLKKTVIYTDYTHDPTSSLYRIDGDNYSGMGMYIPNSFTTPKYLLWNNYFKSSIAWYHASGWAETESIWGN", "soluble on expression in E. coli": "not soluble"}, {"sequence": "MGHHHHHHSHMVTMEELREMDCSVLKRLMNRDENGGGAGGSGSHGTLGLPSGGKCLLLDCRPFLAHSAGYILGSVNVRCNTIVRRRAKGSVSLEQILPAEEEVRARLRSGLYSAVIVYDERSPRAESLREDSTVSLVVQALRRNAERTDICLLKGGYERFSSEYPEFCSKTKALAAIP", "soluble on expression in E. coli": "not soluble"}, {"sequence": "RIIEINPEEGWVRVEAGVIKDQLNQFLKPYGYFFAPELSTSNRATLGGMINTDASGQGSLVYGKTSDHVLGLRAVLMGGDILDTQAVPVALAETLGNTPSTVGRIYNTVYQRCKAQRDLIIDKFPKLNRFLTGYDLRHVFNDEMSEFDLTRILTGSEGTLAFITEARLDITRLP", "soluble on expression in E. coli": "not soluble"}, {"sequence": "MSATNLAVEQLQRVLLPRRGEPADVRSLYLLEAESNKERLEWEDRFSVSVPAGAEVSFQTYFNAFPASYWRRWSQLDSVVLKLKVSGEARVDLYRSKIDGARIGITGSVVKDDFIEFEVSLAPFEDGGWIWFDLTAETDATVEEAGWYAPHAPKAQIMPDGSEVGPFEARATVGIPTFNRPADAVAALEALASDPAVDAVIDTVIMPDQGNKHPADEPGYKAAVEHFGDRFFEFRQGNLGGSGGYSRIMFEALGGVDGKGEAGAAKSPYILYMDDDIAIEPDSVLRALQVARYAKSPILVGGQMLNLQERSHLHTMGEVVGGHDFMWTAAPHVHYDHDFSAHPLHDRGKFDDKPDAPNSRDLHRRIDVDFNGWWMCMIPRVVAEQIGQPLPLFIKWDDAEYGLRARKAGFPTATWPGIAIWHMAWSDKDDAIDWQAYFHLRNRLVVAAMYHQGSVDGIVRSMQKATFKHLLCLEYSTVAIQNEAMKDFLAGPDQLFSILDTSLPRIAAIRKTYPDAVVLPSATELPRATGAPGVPTKDIGGRLAPIKKAMWLAKGLKHSLSKEDASHHEVPQANFAPIEARWFSLSRVDGATVTTADGRGVVYRKRDRDKAKELGKEARALQKQVAERFDELSRAYRNAHPELVSREAWGKVFDEQ", "soluble on expression in E. coli": "not soluble"}, {"sequence": "RVASNLDNKARVTELFKSAYSILTEVEKMAVEGKMPEEEAKALATRLLRNNIYKDNEYVYVADENMMFIAAPLDPQLHGTSFHDFKDGSGNSVGQ", "soluble on expression in E. coli": "not soluble"}, {"sequence": "WMQTSDGLRIRAGHWRPEGEVRGTVLMFPGRTEYVEKYGNAAQAFVTRGFAMLAVDWRGQGLADRLLEDRRLGHVLEFTDYQRDVAAVVELATTLDLPRPWFVVGHSMGGAIGLRAVMEGLPVAACAFTGPMWGIFFTPVMKPLSWITANLAPAIGMGHKHPATTTLEPYVQAQEFEGNSLTRDPAMYEMMRSQLAAHPELALGAPTNIWLREALAECRALSDRPSPDLPCLTFLGSHEQIVDRKAVRARMARWPRGELVEIPDGEHEVLMEAPEVRDPAYDRM", "soluble on expression in E. coli": "not soluble"}, {"sequence": "MLGACVEKPSTLERVKEDGVLRVVTRNSPATYFQDRNGETGFEYELVKRFADDLGVELKIETADNLDDLFDQLGQPKGPVLAAAGLVSSEQRKQQVRFSHPYLEVTPQVIYRNGRSRPTTAQDLVGKHIMVLKGSTHAEQLAELKLKYPGIEYEESDAVEVVDLLRMVDEGQIDLTLVDSNELAMNQVYFPNVRVAFDLGDARSQSWAVAAGDDNSLLNEINSFLDKVEKNGTLQRLKDRYYGHVDVLGYVGAYTFAQHLQQRLPKYEKHFKASAKQEKLDWRLLAAVGYQESMWQAEVTSKTGVRGLMMLTQNTAQAMGVSNRLDPKQSISGGAKYLAYIKEQLDDKIEEPDRTWFALAAYNVGTGHLDDARKLAEKEGLNPNKWLDVKKMLPRLSQKQWYSKTRYGYARGGEPVHFVANIRRYYDILTWVTQPQLEGDQVAEGNLHVPGVNKTKPPEENPPLLEHHHHHH", "soluble on expression in E. coli": "soluble"}, {"sequence": "MRNTKGNELEDREILASSLHANGISETVLLQIWNATEENLDKLVSALNVYKKGKISITWHEIMTVKENNEAIIPFSVAVQNIYGAFKNIDEELAELARNAIESGWVDAEPRENKPPGGFCAPFFSEKESRISMRYDGSIDSVRILAHELGHAWHFYNMSFEQSSSFLDDYLPMSTAESASIFFETLLINYLIQTTDSIDIKKSLLSWKIRNCFNYVMAIRASFEFEKNFYEKCKESPISADEIEKISIVAQEKAYGNALSEYQPFVWMKYVQFYIADVPFYNYPYTFGYLVSFSLLEIAKENKSTFHSKFKEFLRENGKAPVEELIKKHFEIDITSYAFWDKAFKQISKDIDAYLRLI", "soluble on expression in E. coli": "not soluble"}, {"sequence": "MKNFVAGAQSGRKIQSGGCAIHCQDCSISQLCIPFTLNEQELDQLDNIIERKKPIQKSQVLFKAGDSLNSIYAIRSGTIKSYTISESGEEQITSFHLPGDLVGFDAITQMQHPSFAQALETAMVCEIPFDILDDLAGKMPKLRQQILRLMSSEIKSDQEMILLLSKMNAEERLAAFIHNLSKRYSARGFSAREFRLTMTRGDIGNYLGLTVETISRLLGRFQKLGVISVQGKYITINDLNGLIELTGTNKTKITLVK", "soluble on expression in E. coli": "not soluble"}, {"sequence": "MPGAMESPNESEDVSKTFFKLCDGLRLGELVTTEHFRLSDVMSAIELGEPKMDVGVGSKHIKTLKEAISGGLYADDYPFQLAIMDSTLAMVVAWLEGSALGSTVWTNVLLSNVTFVKHPVFHPFASGVNLFIRNAHALINSVGNLEELPEDFNPQMLFSHQRWAPRRVVVQLMREQVTLLGTTGRKWRESAFSKQAYDICCAVASRLEMFIMLLEIIGLLVAPEIEDPNFDHKVHLGDFYVHEKEYEGAEENSDEKSEESTSDPTPSSEAKSETTEKKEQKSNDEATDETDQNDDENVGDDEDEDDMKQFKPNFGFASILAERLCKVTKAYAETVKLGRRAPDNIDGDGDYLWLGAYEPKTCIRMIPACFPRKIKVPSRQEAADWWVKCAERIYHLCIVTPKTSKDLNYLFYFARTFGQNACVFTRSLLQICMFPVDNHLCGDENRSIADAVEYSLSNCFCPQILDRVSPVYKDQTAQSLYVLFLNHMSKLAITVYGSFGCNLSRQRDRLEMAIEDLGQIHSYAGRLEERTDEVLLSGKMVTAKEQNYSYHSVATFVFHNLLAIINHYFELGFRMDLYVPYEFPYIYWFIGSVQAHWMRTTLERSQEIQLNVYQANPLRETKNKKLWEERCKLGEELKRRVAAHQFSVLNQIAISMISDGVVRLTVVLIRKGIIKMPKGGDDAEKLRFERRFEPFDSLGPPVRVDYERFKSDSGIDQMYEDKIETLIDQAQKSFNEAREHLEKIDNSVEQNREMMQLIHVAKSNIIACRVLKLDLTDRNVVWSFSEEIPMFPCLKISKK", "soluble on expression in E. coli": "not soluble"}, {"sequence": "MYCPFCHNDQSRVIDSRVIDSGSAIRRRRECTQCKNRFTTVEKAQLLVVKRNGLTEPFSREKVIVGVRRACQGRDVSDDALKRLAQQVEERVRLHGSSQIHANEIGLAILEPLRELDEVAYLRFASVYKSFESADDFESEIRLMRRRDRSN", "soluble on expression in E. coli": "not soluble"}, {"sequence": "PRRGAVAHANSIVQQLVSEGADISHTRNMLRNAMNGDAVAFSRVEQNIFRQHFPNMPMHGISRDSELAIELRGALRRAVHQQAAS", "soluble on expression in E. coli": "soluble"}]}]}
